Reference: publication PMC5840378

Target: T1, 14-3-3ε full length (14-3-3ε FL), recombinant, P62258
T1 chain: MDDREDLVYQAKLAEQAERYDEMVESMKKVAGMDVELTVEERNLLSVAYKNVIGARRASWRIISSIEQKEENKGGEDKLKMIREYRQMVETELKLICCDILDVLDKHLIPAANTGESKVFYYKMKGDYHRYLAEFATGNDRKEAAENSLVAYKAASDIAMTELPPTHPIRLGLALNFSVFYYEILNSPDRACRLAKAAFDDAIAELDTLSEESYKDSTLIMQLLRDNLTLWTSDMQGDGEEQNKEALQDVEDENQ
Assay: AUC + other: dynamic light scattering; sedimentation velocity, 20 °C, 45,000 r.p.m., 37 μM, 5 mM sodium phosphate pH 6.3; DLS at 0.1 mg/mL, 25 °C, same buffer
Conditions: remark: other sources report otherwise

- stoichiometry N: 2
B1: 14-3-3ε full length (14-3-3ε FL), recombinant, P62258 1-255 (natural protein)
chain: T1 chain
